From the supplement of paper PMC9112550, “Optimization of the antimicrobial peptide Bac7 by deep mutational scanning” (BMC Biology, 2022)

Tested on: Escherichia coli TOP10
Experiment: shrunken log2 fold change of peptide-encoding DNA abundance (4.5 h post-induction vs induction); higher = less antimicrobial activity (less host growth inhibition)
Conditions: time post-induction: 4.5 h; library: site-saturation at positions 5, 18, 19, 20
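Further: peptides expressed intracellularly from a pBAD plasmid library in pooled LB shake-flask culture, induced with 0.3% L-arabinose, DNA abundance read by NGS, three biological replicates, DESeq2 with apeglm shrinkage.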

| Sequence | shrunken log2 fold change |
| --- | --- |
| RRIRWRPPRLPRPRPRPTKAPRP | 0.122 |
| RRIRWRPPRLPRPRPRPTKHPRP | -0.118 |
| RRIRWRPPRLPRPRPRPTLKPRP | 0.0453 |
| RRIRWRPPRLPRPRPRPTLTPRP | 0.697 |
| RRIRWRPPRLPRPRPRPTLVPRP | -0.212 |
| RRIRWRPPRLPRPRPRPTPEPRP | 0.711 |
| RRIRWRPPRLPRPRPRPTPGPRP | 0.572 |
| RRIRWRPPRLPRPRPRPTPMPRP | 0.24 |
| RRIRWRPPRLPRPRPRPTSRPRP | 0.0324 |
| RRIRWRPPRLPRPRPRPTTCPRP | -0.00726 |
| RRIRWRPPRLPRPRPRPTTKPRP | 0.5 |
| RRIRWRPPRLPRPRPRPTVNPRP | 0.0302 |
| RRIRWRPPRLPRPRPRPVADPRP | 1.07 |
| RRIRWRPPRLPRPRPRPVAEPRP | 1.41 |
| RRIRWRPPRLPRPRPRPVAKPRP | 0.404 |
| RRIRWRPPRLPRPRPRPVARPRP | 0.359 |
| RRIRWRPPRLPRPRPRPVCAPRP | 0.553 |
| RRIRWRPPRLPRPRPRPVEMPRP | 0.206 |
| RRIRWRPPRLPRPRPRPVGAPRP | 1.73 |
| RRIRWRPPRLPRPRPRPVGEPRP | 1.01 |
| RRIRWRPPRLPRPRPRPVGGPRP | 0.494 |
| RRIRWRPPRLPRPRPRPVIGPRP | 0.183 |
| RRIRWRPPRLPRPRPRPVITPRP | 0.362 |
| RRIRWRPPRLPRPRPRPVLGPRP | 0.241 |
| RRIRWRPPRLPRPRPRPVLKPRP | 0.637 |

| Sequence | shrunken log2 fold change |
| --- | --- |
| RRIRWRPPRLPRPRPRPVLWPRP | 0.809 |
| RRIRWRPPRLPRPRPRPVMTPRP | 0.569 |
| RRIRWRPPRLPRPRPRPVNEPRP | -0.0791 |
| RRIRWRPPRLPRPRPRPVPNPRP | 0.0838 |
| RRIRWRPPRLPRPRPRPVQYPRP | -0.108 |
| RRIRWRPPRLPRPRPRPVRAPRP | 0.636 |
| RRIRWRPPRLPRPRPRPVRDPRP | 0.687 |
| RRIRWRPPRLPRPRPRPVRQPRP | 0.161 |
| RRIRWRPPRLPRPRPRPVSVPRP | -0.258 |
| RRIRWRPPRLPRPRPRPVTLPRP | -0.147 |
| RRIRWRPPRLPRPRPRPVVHPRP | -0.102 |
| RRIRWRPPRLPRPRPRPVVKPRP | -0.322 |
| RRIRWRPPRLPRPRPRPVYCPRP | -0.196 |
| RRIRWRPPRLPRPRPRPVYHPRP | 0.161 |
| RRIRWRPPRLPRPRPRPVYRPRP | -0.0858 |
| RRIRWRPPRLPRPRPRPWAFPRP | 0.044 |
| RRIRWRPPRLPRPRPRPWCVPRP | -0.032 |
| RRIRWRPPRLPRPRPRPWDGPRP | 0.00386 |
| RRIRWRPPRLPRPRPRPWFCPRP | -0.0932 |
| RRIRWRPPRLPRPRPRPWFMPRP | -0.222 |
| RRIRWRPPRLPRPRPRPWFWPRP | 0.123 |
| RRIRWRPPRLPRPRPRPWGHPRP | -0.404 |
| RRIRWRPPRLPRPRPRPWGQPRP | -0.0525 |
| RRIRWRPPRLPRPRPRPWIEPRP | 0.0929 |
| RRIRWRPPRLPRPRPRPWKLPRP | -0.00166 |

| Sequence | shrunken log2 fold change |
| --- | --- |
| RRIRWRPPRLPRPRPRPWLDPRP | -0.231 |
| RRIRWRPPRLPRPRPRPWNEPRP | 0.0237 |
| RRIRWRPPRLPRPRPRPWNGPRP | 0.0206 |
| RRIRWRPPRLPRPRPRPWQRPRP | 0.551 |
| RRIRWRPPRLPRPRPRPWQYPRP | -0.0277 |
| RRIRWRPPRLPRPRPRPWSLPRP | 0.0526 |
| RRIRWRPPRLPRPRPRPWSRPRP | -0.132 |
| RRIRWRPPRLPRPRPRPWTTPRP | -0.148 |
| RRIRWRPPRLPRPRPRPWVEPRP | 0.0386 |
| RRIRWRPPRLPRPRPRPWVQPRP | 0.128 |
| RRIRWRPPRLPRPRPRPWVWPRP | 0.0506 |
| RRIRWRPPRLPRPRPRPWWGPRP | 0.0568 |
| RRIRWRPPRLPRPRPRPYAMPRP | 0.0576 |
| RRIRWRPPRLPRPRPRPYDWPRP | -0.0803 |
| RRIRWRPPRLPRPRPRPYGPPRP | -0.0264 |
| RRIRWRPPRLPRPRPRPYIRPRP | -0.359 |
| RRIRWRPPRLPRPRPRPYIYPRP | -0.541 |
| RRIRWRPPRLPRPRPRPYKMPRP | 0.0642 |
| RRIRWRPPRLPRPRPRPYKRPRP | -0.977 |
| RRIRWRPPRLPRPRPRPYKTPRP | -0.0554 |
| RRIRWRPPRLPRPRPRPYMNPRP | -1.44 |
| RRIRWRPPRLPRPRPRPYMSPRP | -0.212 |
| RRIRWRPPRLPRPRPRPYNNPRP | -0.991 |
| RRIRWRPPRLPRPRPRPYNRPRP | -1.09 |
| RRIRWRPPRLPRPRPRPYPRPRP | -0.632 |

| Sequence | shrunken log2 fold change |
| --- | --- |
| RRIRWRPPRLPRPRPRPYQHPRP | -0.692 |
| RRIRWRPPRLPRPRPRPYQPPRP | -0.0963 |
| RRIRWRPPRLPRPRPRPYRHPRP | -0.0902 |
| RRIRWRPPRLPRPRPRPYRSPRP | 0.0201 |
| RRIRWRPPRLPRPRPRPYSSPRP | -1.07 |
| RRIRWRPPRLPRPRPRPYSWPRP | -0.128 |
| RRIRWRPPRLPRPRPRPYVLPRP | -0.843 |
| RRIRWRPPRLPRPRPRPYWWPRP | -0.0939 |
| RRIRWRPPRLPRPRPRPYYDPRP | -0.262 |
| RRIRYRPPRLPRPRPRPAADPRP | -0.0866 |
| RRIRYRPPRLPRPRPRPAAHPRP | -0.134 |
| RRIRYRPPRLPRPRPRPACAPRP | -0.236 |
| RRIRYRPPRLPRPRPRPAEGPRP | -0.169 |
| RRIRYRPPRLPRPRPRPAEIPRP | -0.148 |
| RRIRYRPPRLPRPRPRPAEPPRP | 0.0314 |
| RRIRYRPPRLPRPRPRPAEWPRP | 0.00902 |
| RRIRYRPPRLPRPRPRPAIYPRP | -0.121 |
| RRIRYRPPRLPRPRPRPAQEPRP | 0.075 |
| RRIRYRPPRLPRPRPRPARVPRP | -0.0653 |
| RRIRYRPPRLPRPRPRPASWPRP | 0.299 |
| RRIRYRPPRLPRPRPRPATKPRP | 0.171 |
| RRIRYRPPRLPRPRPRPAVMPRP | -0.231 |
| RRIRYRPPRLPRPRPRPCCFPRP | -0.709 |
| RRIRYRPPRLPRPRPRPCCWPRP | 0.0911 |
| RRIRYRPPRLPRPRPRPCDTPRP | -0.0977 |

| Sequence | shrunken log2 fold change |
| --- | --- |
| RRIRYRPPRLPRPRPRPCDVPRP | -0.739 |
| RRIRYRPPRLPRPRPRPCEPPRP | 0.0986 |
| RRIRYRPPRLPRPRPRPCGPPRP | -0.436 |
| RRIRYRPPRLPRPRPRPCGRPRP | -0.00865 |
| RRIRYRPPRLPRPRPRPCHYPRP | -0.00968 |
| RRIRYRPPRLPRPRPRPCIFPRP | -0.559 |
| RRIRYRPPRLPRPRPRPCISPRP | 0.0212 |
| RRIRYRPPRLPRPRPRPCLHPRP | -0.633 |
| RRIRYRPPRLPRPRPRPCMFPRP | -0.981 |
| RRIRYRPPRLPRPRPRPCMGPRP | -0.198 |
| RRIRYRPPRLPRPRPRPCREPRP | -0.152 |
| RRIRYRPPRLPRPRPRPCSIPRP | -0.0204 |
| RRIRYRPPRLPRPRPRPCSLPRP | 0.0201 |
| RRIRYRPPRLPRPRPRPCVVPRP | -0.0208 |
| RRIRYRPPRLPRPRPRPCWPPRP | 0.0499 |
| RRIRYRPPRLPRPRPRPCYGPRP | -0.211 |
| RRIRYRPPRLPRPRPRPCYLPRP | -0.0778 |
| RRIRYRPPRLPRPRPRPCYQPRP | -0.285 |
| RRIRYRPPRLPRPRPRPCYVPRP | -0.0553 |
| RRIRYRPPRLPRPRPRPDCCPRP | -0.115 |
| RRIRYRPPRLPRPRPRPDCHPRP | -0.0362 |
| RRIRYRPPRLPRPRPRPDCIPRP | -0.501 |
| RRIRYRPPRLPRPRPRPDDWPRP | -0.437 |
| RRIRYRPPRLPRPRPRPDEAPRP | 0.033 |
| RRIRYRPPRLPRPRPRPDFVPRP | -0.205 |

| Sequence | shrunken log2 fold change |
| --- | --- |
| RRIRYRPPRLPRPRPRPDGFPRP | -0.418 |
| RRIRYRPPRLPRPRPRPDGRPRP | -0.154 |
| RRIRYRPPRLPRPRPRPDGTPRP | 0.0319 |
| RRIRYRPPRLPRPRPRPDHIPRP | 0.0129 |
| RRIRYRPPRLPRPRPRPDIPPRP | -0.119 |
| RRIRYRPPRLPRPRPRPDKCPRP | -0.107 |
| RRIRYRPPRLPRPRPRPDKNPRP | -0.558 |
| RRIRYRPPRLPRPRPRPDKTPRP | 0.0325 |
| RRIRYRPPRLPRPRPRPDMSPRP | -0.0894 |
| RRIRYRPPRLPRPRPRPDNSPRP | -0.779 |
| RRIRYRPPRLPRPRPRPDNWPRP | -0.38 |
| RRIRYRPPRLPRPRPRPDPFPRP | -0.206 |
| RRIRYRPPRLPRPRPRPDRVPRP | -0.234 |
| RRIRYRPPRLPRPRPRPDSEPRP | -0.0121 |
| RRIRYRPPRLPRPRPRPDTRPRP | -0.153 |
| RRIRYRPPRLPRPRPRPDTSPRP | -0.0824 |
| RRIRYRPPRLPRPRPRPDVKPRP | -0.294 |
| RRIRYRPPRLPRPRPRPDVNPRP | -0.0115 |
| RRIRYRPPRLPRPRPRPDWFPRP | -0.987 |
| RRIRYRPPRLPRPRPRPDWGPRP | -0.0597 |
| RRIRYRPPRLPRPRPRPDWPPRP | -0.0212 |
| RRIRYRPPRLPRPRPRPDYLPRP | -1.57 |
| RRIRYRPPRLPRPRPRPEADPRP | 0.123 |
| RRIRYRPPRLPRPRPRPECAPRP | -0.126 |
| RRIRYRPPRLPRPRPRPECFPRP | -0.288 |
